Columns and labels:
Experiment in all cases: EMSA; E. coli tRNA; RNA EMSA: 50 mM HEPES pH 8, 1 mM DTT, 100 mM NaCl, 0.01% BSA, 2% glycerol, 50 ng/uL E. coli tRNA, 0.25 nM RNA, 20 min on ice then 10 min 25 C; dsDNA EMSA: same
[1] = biological target: GST-TRF1 (human, UniProt P54274 1-439); details: protein: recombinant, tags: N-terminal GST, chain copies: 2, label: 5'-32P
[2] = biological target: GST-TRF2 (human, UniProt Q15554 43-542); details: protein: recombinant, tags: N-terminal GST, chain copies: 2, label: 5'-32P
[3] = biological target: T1, GST-A (hA) (human, UniProt P54274 1-66); details: protein: recombinant; tags: N-terminal GST; label: 5'-32P; G4-forming
T1 sequence: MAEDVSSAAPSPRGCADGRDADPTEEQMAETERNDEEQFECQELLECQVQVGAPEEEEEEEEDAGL

[4] = biological target: T2, GST-B (hB) (human, UniProt Q15554 43-86); details: protein: recombinant, tags: N-terminal GST, label: 5'-32P
T2 chain: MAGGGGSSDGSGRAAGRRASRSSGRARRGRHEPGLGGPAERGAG

[5] = biological target: GST-hBL (human, UniProt Q15554 1-86); details: protein: recombinant; tags: N-terminal GST; label: 5'-32P; G4-forming

Binder	binding result ([1]; G4-forming)	binding result ([2]; G4-forming)	binding result ([4]; G4-forming)	binding result ([1]; not G4-forming)	binding result ([2]; not G4-forming)	binding result ([4]; not G4-forming)	also measured
UUAGGGUUAGGGUUAGGGUUAGGGUUAGGG (structured_RNA) [TERRA (UUAGGG)5]	binds	binds	binds	–	–	–	binding result [3]: no binding; binding result [5]: binds
AUAGGGAUAGGGAUAGGGAUAGGGAUAGGG (structured_RNA) [MUT3 (AUAGGG)5]	binds	binds	binds	–	–	–	–
UUACCGUUACCGUUACCGUUACCGUUACCG (ssRNA) [MUT2 (UUACCG)5]	–	–	–	no binding	no binding	no binding	–
TERRA (UUAGGG)12 (structured_RNA) RNA: UUAGGGUUAGGGUUAGGGUUAGGGUUAGGGUUAGGGUUAGGGUUAGGGUUAGGGUUAGGGUUAGGGUUAGGG	–	–	–	–	–	–	binding result [4]: binds
UUACGGUUACGGUUACGGUUACGGUUACGG (ssRNA) [MUT1 (UUACGG)5]	–	–	–	no binding	no binding	no binding	–
AAAGGGAAAGGGAAAGGGAAAGGGAAAGGG (structured_RNA) [MUT4 (AAAGGG)5]	binds	binds	binds	–	–	–	–

— paper PMC9500956, “In Vitro Characterization of the Physical Interactions between the Long Noncoding RNA TERRA and the Telomeric Proteins TRF1 and TRF2”
